From publication PMC3237451, “Missense Mutation in the Second RNA Binding Domain Reveals a Role for Prkra (PACT/RAX) during Skull Development”

Molecular target: T1, His-RAX (S130P) (Mus musculus (cDNA from L929 cells), UniProt Q9WTX2 1-313, S130P)
T1 sequence: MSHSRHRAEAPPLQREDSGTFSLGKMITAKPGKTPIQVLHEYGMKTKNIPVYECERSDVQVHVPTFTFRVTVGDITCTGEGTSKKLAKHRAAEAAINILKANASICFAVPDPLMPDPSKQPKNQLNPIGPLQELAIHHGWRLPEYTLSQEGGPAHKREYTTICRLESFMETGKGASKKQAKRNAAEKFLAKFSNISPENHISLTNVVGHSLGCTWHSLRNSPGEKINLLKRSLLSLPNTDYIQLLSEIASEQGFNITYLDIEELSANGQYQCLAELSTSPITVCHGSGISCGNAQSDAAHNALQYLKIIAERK
Assay: EMSA; 20 mM Tris pH 7.5, 50 mM KCl, 2 mM MgCl2, 2 mM MnCl2, 5% glycerol; EMSA 15 min at room temperature, 5% acrylamide gel in 0.25x TBE run cold
Settings: protein: recombinant; blunt

B1: 30-bp dsRNA probe (dsRNA)
RNA 1: GGGAACAAAAGCUGGGUACCGGGCCCCCCC
RNA 2: GGGGGGGCCCGGUACCCAGCUUUUGUUCCC
- binding result: no binding
